Tests used:
Clr [1] = target: T1, Clr (Sinorhizobium meliloti, UniProt Q92SD2); test: isothermal titration calorimetry; assay type: binding
T1 construct: gene SMc02175

[2] = target: Sinorhizobium meliloti Clr, C-terminally His6-tagged (Sinorhizobium meliloti); test: SEC; apo-Clr in solution (no cNMP, no DNA); dimer to monomers
[3] = target: Sinorhizobium meliloti Clr, C-terminally His6-tagged (Sinorhizobium meliloti); test: crystal structure; Clr (0.25 or 0.44 mM) with 25 mM cAMP or cGMP, 25 mM MgCl2 and 1.25-fold excess of 19-mer/14-mer duplex CBS-DNA; sitting-drop vapor diffusion, 291 K (cAMP) or 281 K (cGMP)
Clr [4] = target: T2, Clr (Sinorhizobium meliloti, UniProt Q92SD2 1-234); test: ITC; 1 mM cAMP; EMSA: 2 mM HEPES pH 7.0, 30 mM NaCl, 50 mM KCl, 850 ng salmon sperm DNA, 1 ug BSA, 20 ng Cy3-DNA, 3 ug Clr in 10 uL, 1 mM cAMP, room temperature. ITC: 20 mM HEPES, 300 mM NaCl, 20 mM MgCl2, pH 7.0, 25 C; settings: protein: recombinant; tags: C-terminal His6 (pET36b, NdeI/XhoI); chain copies: 2; two copies of each strand; duplex arms joined by palindromic 5' overhang CTAG (4 nt) of the 19-mer, 1 nt 3' overhang G; nicked
T2 sequence: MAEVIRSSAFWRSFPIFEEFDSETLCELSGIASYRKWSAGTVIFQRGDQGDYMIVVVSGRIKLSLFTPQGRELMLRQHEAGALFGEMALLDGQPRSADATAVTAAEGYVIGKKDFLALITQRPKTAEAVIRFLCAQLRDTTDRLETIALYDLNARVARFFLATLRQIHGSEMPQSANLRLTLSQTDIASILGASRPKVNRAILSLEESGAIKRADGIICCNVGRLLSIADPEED

`Nc1nc2c(ncn2[C@@H]2O[C@@H]3COP(=O)(O)O[C@H]3[C@H]2O)c(=O)[nH]1` [cGMP] was tested, and the Kd (Clr [1]) was 23.8 ± 14.5 µM.

Molecule “Sinorhizobium meliloti Clr, C-terminally His6-tagged” has a percent in the monomeric state [2] of 86% and a stoichiometry N [2] of 2.

“Sinorhizobium meliloti Clr, C-terminally His6-tagged (natural protein)” showed a stoichiometry N [3] of 2.

B1: CBS-DNA, two identical 19-mer/14-mer duplexes joined by palindromic CTAG sticky ends (nicked 33-nt) (dsDNA)
DNA 1: CTAGGTAACATTACTCGCG
DNA 2: GCGAGTAATGTTAC
DNA 3: CTAGGTAACATTACTCGCG
DNA 4: GCGAGTAATGTTAC
B1 was tested, and the Kd (Clr [4]) was 6 ± 4.7 µM.
